Experimental data: the supplement of paper PMC9112550, “Optimization of the antimicrobial peptide Bac7 by deep mutational scanning” (BMC Biology, 2022)

tested on: Escherichia coli TOP10; assay: shrunken log2 fold change of peptide-encoding DNA abundance (4.5 h post-induction vs induction); higher = less antimicrobial activity (less host growth inhibition); settings: time post-induction: 4.5 h; library: site-saturation at positions 5, 18, 19, 20
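Note: peptides expressed intracellularly from a pBAD plasmid library in pooled LB shake-flask culture, induced with 0.3% L-arabinose, DNA abundance read by NGS, three biological replicates, DESeq2 with apeglm shrinkage.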

Sequence	shrunken log2 fold change
RRIRFRPPRLPRPRPRPGAGPRP	0.289
RRIRKRPPRLPRPRPRPIAWPRP	0.155
RRIRTRPPRLPRPRPRPMEHPRP	0.118
RRIRRRPPRLPRPRPRPLLGPRP	0.504
RRIRDRPPRLPRPRPRPGSTPRP	0.637
RRIRPRPPRLPRPRPRPPIQPRP	0.00728
RRIRGRPPRLPRPRPRPTRLPRP	0.939
RRIRIRPPRLPRPRPRPPHAPRP	0.162
RRIRLRPPRLPRPRPRPSVMPRP	-0.199
RRIRWRPPRLPRPRPRPWHYPRP	-0.0627
RRIRIRPPRLPRPRPRPDIKPRP	-0.576
RRIRCRPPRLPRPRPRPWWMPRP	-0.0465
RRIRHRPPRLPRPRPRPWMGPRP	-0.205
RRIRVRPPRLPRPRPRPQDGPRP	-0.00098
RRIRIRPPRLPRPRPRPCRAPRP	-0.284
RRIRCRPPRLPRPRPRPFMVPRP	-0.502
RRIRLRPPRLPRPRPRPMIYPRP	-0.0701
RRIRCRPPRLPRPRPRPPVSPRP	0.134
RRIRRRPPRLPRPRPRPRWPPRP	0.598
RRIRNRPPRLPRPRPRPCHRPRP	-0.139
RRIRWRPPRLPRPRPRPGNIPRP	-0.472
RRIRLRPPRLPRPRPRPCNLPRP	0.034
RRIRQRPPRLPRPRPRPIYHPRP	-0.179
RRIRLRPPRLPRPRPRPLNSPRP	-0.389
RRIRNRPPRLPRPRPRPISFPRP	-0.0972

Sequence	shrunken log2 fold change
RRIRHRPPRLPRPRPRPGIFPRP	-0.24
RRIRYRPPRLPRPRPRPTVLPRP	0.00488
RRIRKRPPRLPRPRPRPTHHPRP	0.897
RRIRYRPPRLPRPRPRPMFFPRP	-0.618
RRIRPRPPRLPRPRPRPCSFPRP	-0.109
RRIRSRPPRLPRPRPRPKSAPRP	0.403
RRIRLRPPRLPRPRPRPHRNPRP	-0.319
RRIRVRPPRLPRPRPRPCTMPRP	-0.193
RRIRWRPPRLPRPRPRPRWHPRP	0.271
RRIRMRPPRLPRPRPRPDLGPRP	0.11
RRIRLRPPRLPRPRPRPEEKPRP	0.0262
RRIRLRPPRLPRPRPRPQYNPRP	-0.791
RRIRNRPPRLPRPRPRPVFKPRP	-0.183
RRIRGRPPRLPRPRPRPHYYPRP	-0.119
RRIRWRPPRLPRPRPRPNEPPRP	-0.000964
RRIRIRPPRLPRPRPRPGYWPRP	-0.0497
RRIRDRPPRLPRPRPRPMDSPRP	-0.0175
RRIRRRPPRLPRPRPRPYWRPRP	0.0363
RRIRMRPPRLPRPRPRPKFGPRP	-0.0062
RRIRARPPRLPRPRPRPQCFPRP	0.1
RRIRCRPPRLPRPRPRPCETPRP	0.0192
RRIRERPPRLPRPRPRPWLYPRP	0.102
RRIRPRPPRLPRPRPRPHSSPRP	-0.171
RRIRIRPPRLPRPRPRPHEAPRP	-0.396
RRIRYRPPRLPRPRPRPFQNPRP	-0.0769
